# Test: yeast display, Sf9 membrane polyspecificity reagent, FACS + sequencing; frameworks hold sequencing errors
# Procedure, shortened: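 In a synthetic yeast display library (Saccharomyces cerevisiae BJ5465), nanobody expression was induced with galactose for 36–48 hours. FACS gates were set low and high (top ~1%) using anti-HA fluorescence for expression and streptavidin fluorescence for binding of the Sf9 membrane reagent. Each polyreactivity label is drawn from the gate of origin.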
row,Sequence,polyreactivity (PSR sort gate)
1,QVQLVESGGGLVQAGGSLRLSCAASGRIFDYYAMGWYRQAPGKERELVARISSSGGSTYYADSVKGRFTISRDNAKNTVYLQKNSLKPEDTAVSYCDARSPRYWLRLREYWGQGTQVTVSS,high polyreactivity
2,QVQLVESGGGLVQAGGSLRLSCAASGRIFDYYAMGWYRQEAGKERELVARITSGGTTNYADSVKGRFTISRDNAKNTVYLQMNSLKPEDTAVYYCNAQDYSDPLQMDYWGQCTQVTVSS,low polyreactivity
3,QVQLVESGGGLVQAGGSLRLSCAASGRIFEDNGMGWYRQAPGKEREFVATISWDGDRTYYADSVKGRFTISRDNAKNTVYLQMNSLKPEDTAVYYCNADLPLWPVRGYEYWGQGTQVTVSS,low polyreactivity
4,QVQLVESGGGLVQAGGSLRLSCAASGRIFEFYAMGWYRQAPGKERELVAAISFSGTSTYYADSVKGRFTISRDNAKNTVYLQMNSLKPEDTAVYYCAVRGVGADYDYWGQGTQVTVSS,low polyreactivity
5,QVQLVESGGGLVQAGGSLRLSCAASGRIFERYAMGAYRQAPGKERELVAAISVSGSGTFYADSVKGLFTISRDNAKNTVYLQMNSLKTEDTAVYYCAADASLLGLFQGYDYWGQGTQVSVSS,low polyreactivity
6,QVQLVESGGGLVQAGGSLRLSCAASGRIFETNAMGWYRQAPGKERELVAVITRGGSTYYADSVKGSFTISRDNAKNTVYLQMNSLKPEVTALYYCNVRRLYGYGYYYWGQGTQVTVSW,low polyreactivity
7,QVQLVESGGGLVQAGGSLRLSCAASGRIFEVYDMGWYRQAPGKERELVAAISESDDNTYYADSVKGRFTISRDNAKNTVYLQMNSLKPEDTAVYYCNADVPGDTGWWGFDYWGQGTQVTVSS,low polyreactivity
8,QVQLVESGGGLVQAGGSLRLSCAASGRIFEVYTMGWYRQAPGKERELVAAIDRSTGSTYYADSVKGRFTISRDNAKNTVYLQMNSLKPEDTAVYYCAARGTFLGTRPLGRFDYWGQGTQVTVSS,low polyreactivity
9,QVQLVESGGGLVQAGGSLRLSCAASGRIFEYIAMGWYRQAPGKERELVAAITSDGSTNDADSVKGRFTISRDNAKNTVYLQMNSLNPEDTAVYYCNTRYSLYTKYAYYDEHDYWGQGTQVTVSS,low polyreactivity
10,QVQLVESGGGLVQAGGSLRLSCAASGRIFEYYAMGWYRQAPGKERELVAAINTGGNTYYADSVKGRFTLSRDNAKNTVYLQMNSLKPEDTAVYYCATYPIWYCGYLSGTDYDYWGQGTQVTVSS,low polyreactivity
11,QVQLVESGGGLVQAGGSLRLSCAASGRIFFANAMGWYRQAPGKERELVAAISYSGTSTYYADSVKGRFTISRDNAKNSVYLQMNSLKPEDTAVYYCNAGRYIKMGDWGQGTQVTVSS,high polyreactivity
12,QVQLVESGGGLVQAGGSLRLSCAASGRIFFGYAMGWYRQAPGKERELVASISRGGSTNYADSVKGRFTISRDNAKNTVYLEMNSLKPEDTAVYYCAASRRRWSQQQGYGYYYWGQGTQVTVSS,high polyreactivity
13,QVQLVESGGGLVQAGGSLRLSCAASGRIFFKNAMGWYRQAPGKERELVAAITWSGGRTYYADSVKGRFTISRDNAKNTVYLQMNSLKPEDTAVYYCNALAPSPYDWGQGTQVTVSS,high polyreactivity
14,QVQLVESGGGLVQAGGSLRLSCAASGRIFFKNTMGWYRQAPGNESELVAAITSSGSSTYYADSVKARFTISRDNSKNNVYLQMNSLKPEDTAVYYCNALTWDHSRTGVDYWGQGTQVTVSS,low polyreactivity
15,QVQLVESGGGLVQAGGSLRLSCAASGRIFFLNAMGWYRQAPGKERELVATISWTGGSTYYADSVKGRFTISRDNAKNTVDLQMTSLKPEDTAGYYCAKDGTNWGHAFDSWGQGTEVTVSS,low polyreactivity
16,QVQLVESGGGLVQAGGSLRLSCAASGRIFFNYAMGWYRQAPGKERELVAAITRSGGRTYYADSVKGRFTISRDNAKNTVYLQMNSLKPEDTAVYYCAADSGSRGSVAHEYWGQGTQVTVSS,high polyreactivity
17,QVQLVESGGGLVQAGGSLRLSCAASGRIFFRNAMGWYRQAPGKERELVAVINTGGSTNYADSVKGRFTISRDNAKNTVYLQMNSLKPEDTAVYYCAVDRASRRTYNQYGYWGQGTQVTVSS,high polyreactivity
18,QVQLVESGGGLVQAGGSLRLSCAASGRIFFRNTMGWYRQAPGKERELVAAISGSGGSTYYADSVKGRFTISRDNAKNTVYLQMNSLKPEDTAVYYCAKRWLYPISYDYWGQGTQVTVSS,high polyreactivity
19,QVQLVESGGGLVQAGGSLRLSCAASGRIFFRYVMGWYRPAPGKERELVATSTRSGGTTYYADSVKGRFTISRDNAKNTVYLQMNSLKPEDTAVYYCATDYTYHRVGPLYGFWGQGTQLTVSS,low polyreactivity
20,QVQLVESGGGLVQAGGSLRLSCAASGRIFFWYVMGWYRQAPGKERELVAAISSGGRTYYADSVKGRFTISRDNAKNTVYLQMNSLKPEDTAVYYCNVEEYHVRADIGYSNYGYWGQGTQVTVSS,low polyreactivity
21,QVQLVESGGGLVQAGGSLRLSCAASGRIFFYYAMGWYRQAPGKERELVATISYSGGCTYYADSVKGRFTISRDNAKNTVYLQMNSLKPEETAVYYCNARWGTPYYIQDFDYWGQGTQVTVSS,low polyreactivity

row,Sequence,polyreactivity (PSR sort gate)
1,QVQLVESGGGLVQAGGSLRLSCAASGRIFGAYAMGWYRQAPGKEREFVAAITWRGGSTYYADSVKGRFTISRDNAKNTVYLQMNSLKPEDTAVYYCAADQFTGSVWAYYYWGQGTQVTVSS,high polyreactivity
2,QVQLVESGGGLVQAGGSLRLSCAASGRIFGAYAMGWYRQAPGKERELVAAITFRGGSTYYADSVKGRFTISRDNAKNTVYLQMNSLKPEDTAVYYCAADILDYLHIYDYWGQGTQVTVSS,low polyreactivity
3,QVQLVESGGGLVQAGGSLRLSCAASGRIFGEYALGWYRQDPGKERELVARISRSGGSTYADSVKGRFTISRDNAKNTVYFQMNSLKPEVTAVYYCNADAYGTPEFTSYAVRYDYWGQGTQVTVSS,low polyreactivity
4,QVQLVESGGGLVQAGGSLRLSCAASGRIFGFNAMGWYRQAPGKERELVAGITDSSGRTNYADSVKGRFTISRDNAKNTVYLEMNSLKPEDTAVLYCAKDGLVITAVGSDLWGHGTQVTVSS,low polyreactivity
5,QVQLVESGGGLVQAGGSLRLSCAASGRIFGGNAMGWYRQAPAKERELVAAISKRGGSTYYADSVKGRFTISRDNAKNTVYLQMNSLKPEDTAVDYCAATAYADQGLDYGYWGQGTQVTVSS,high polyreactivity
6,QVQLVESGGGLVQAGGSLRLSCAASGRIFGGNAMGWYRQAPGKERQLVAAISKRGGSTYYADSVKGRFTISRDNAKNTVYLQMNSLKPEDTAVYYCAATPYSDQGLDYGYWGQGTQVTVSS,high polyreactivity
7,QVQLVESGGGLVQAGGSLRLSCAASGRIFGGNAMVWYRQAPGKERELVAAITTRGGSTYADSVKGRFTISRDNAKNTVYLQMNSLKPEDSAVYYCNKRYVIRRRGYDYWGQGTQVTVSS,low polyreactivity
8,QVQLVESGGGLVQAGGSLRLSCAASGRIFGGYAMGWYRQAAGKERELVAAISRRGGSTYYADSVKGRFTISRDNAKNTVYLQMNSLKPEDTAVYYCNAVLSDQARLTRVDYDYWGQGTQVTVSS,high polyreactivity
9,QVQLVESGGGLVQAGGSLRLSCAASGRIFGGYAMGWYRQAPGKERELVAAIRDSGRTYYADSVKGRFTISRDNEKNTVYLQMNRLKPEDTAVYYCAADAHSSYSPFRWYDYWGQGSQVTVSS,low polyreactivity
10,QVQLVESGGGLVQAGGSLRLSCAASGRIFGGYAMGWYRQAPGKERELVAVISGRGGSTYYADSVKGRFTISRDNAMNTVYLQMNSLKPEDTAVYYCTVYRRIQRYGPQSYDYWGQGTQVTVSS,high polyreactivity
11,QVQLVESGGGLVQAGGSLRLSCAASGRIFGGYTMGWYRQAPGKEREFVAAITSSGGSTYYADSVKGRLTISRDNAKNTVYLQMNSLKPEDTAVYYCAVADYYDDYDYWGQGTQVTVSS,low polyreactivity
12,QVQLVESGGGLVQAGGSLRLSCAASGRIFGGYTMGWYRQAPGKERELVAAIRWSGGRTYYADSVKGRFTISRDNAKNTVYLQMNSLKPEDTAVYYCNRTPRYTIRYGYWGQGTQVTVSS,high polyreactivity
13,QVQLVESGGGLVQAGGSLRLSCAASGRIFGGYTMGWYRQAPGKERELVAAITGSGGRTYYADSVKGRFTISRDKAKNTVYLQMNSLKPDETAVYYCNTVYRYRYYWGQGTQVTVSS,high polyreactivity
14,QVQLVESGGGLVQAGGSLRLSCAASGRIFGHYAMGWYRPAPGKERELVAAISTGGSTYYADSVKGRFTISRDNAKNTVYFQMNSLKPEDTAVYFCNKRPVRRKYDYWGQGTHVTVSS,low polyreactivity
15,QVQLVESGGGLVQAGGSLRLSCAASGRIFGHYAMGWYRQAPGKERELVAAINWRGGSTYYADSVKGRFTISRDNAKNTVYLQMNSLKPEDTAVYYCAAANFRSYLSQTGPRAYYYWGQGTQVTVSS,low polyreactivity
16,QVQLVESGGGLVQAGGSLRLSCAASGRIFGHYAMGWYRQAPGKERELVAAISQSGTNTYYADSVKGRFTISRDNAKNTVYLQMNSLKPEDTAVYYCAAKPPRRYQLMDYWGQGTKVTVSS,high polyreactivity
17,QVQLVESGGGLVQAGGSLRLSCAASGRIFGHYVMGWYRQAPGKERELVAGISSGGITYYADSVKGRFTISRDNAKNTVYLQMNSLKPEDTAVYYCAARVYYVRGSDTMDYWGQGTQVTVSS,low polyreactivity
18,QVQLVESGGGLVQAGGSLRLSCAASGRIFGINAMGCYRQAPGKERELVAAINWSGGSTYYADSVKGRFTISRDNAKNTVYLQMNSLKPEDTEVYYCAAQKYKRVGYWGQVTQVTVSS,high polyreactivity
19,QVQLVESGGGLVQAGGSLRLSCAASGRIFGINAMGWYRQAPGKERELVAAINWSGGSTYYADSVKGRFTISRDNAKNTVYLQMNSLKPEDTAVYYCAAQKYKRVGYWGQGTQVTVSS,high polyreactivity
20,QVQLVESGGGLVQAGGSLRLSCAASGRIFGINAMGWYRQAPGKERELVAAITSGVSTNYADSVKGRFTISRDNAKNTVYLQMNSLKPEDTAVYYCATRRNRSYDYWGQGTQVTVSS,low polyreactivity

# From the nanobody polyreactivity screen of Harvey et al. (2022)
